Data taken from patent US20210270842A1 (DYAX, published 2021).

T1: intact high molecular weight kininogen (HMWK) (Homo sapiens, UniProt P01042 19-644)
T1 construct: also called intact HMWK; 1-chain HMWK
T1 sequence: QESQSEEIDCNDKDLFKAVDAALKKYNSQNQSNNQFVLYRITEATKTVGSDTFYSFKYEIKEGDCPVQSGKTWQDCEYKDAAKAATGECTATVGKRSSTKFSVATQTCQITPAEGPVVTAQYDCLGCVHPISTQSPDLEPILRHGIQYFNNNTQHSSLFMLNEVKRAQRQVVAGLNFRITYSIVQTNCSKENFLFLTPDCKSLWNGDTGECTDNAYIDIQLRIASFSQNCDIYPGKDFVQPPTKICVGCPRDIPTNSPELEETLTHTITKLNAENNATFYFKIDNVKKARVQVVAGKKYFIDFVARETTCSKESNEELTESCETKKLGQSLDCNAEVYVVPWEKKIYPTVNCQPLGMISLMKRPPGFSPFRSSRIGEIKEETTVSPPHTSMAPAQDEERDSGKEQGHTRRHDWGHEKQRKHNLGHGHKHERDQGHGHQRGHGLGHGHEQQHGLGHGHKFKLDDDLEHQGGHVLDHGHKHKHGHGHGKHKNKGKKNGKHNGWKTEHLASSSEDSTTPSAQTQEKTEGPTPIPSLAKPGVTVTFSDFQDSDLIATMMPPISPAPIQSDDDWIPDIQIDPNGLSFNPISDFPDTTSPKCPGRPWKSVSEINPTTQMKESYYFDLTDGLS

B1: 559B-M0044-E09 (Fab, V domains shown)
VH: EVQLLESGGGLVQPGGSLRLSCAASGFTFSQYSMGWVRQAPGKGLEWVSSIYSSGGSTQYADSVKGRFTISRDNSKNTLYLQMNSLRAEDTATYYCARTRRGWFGEDYYYYMDVWGKGTTVTVSS
VL: DIQMTQSPSSLSASVGDRITITCRASQGIRNDVGWYQQKPGKAPQRLIYAASSLQSGVPSRFSGSGSGTEFTLTISSLQPEDFATYYCLQHNSYPLTFGGGTKVEIK
B2: 559B-M0038-F04 (Fab, V domains shown)
VH: EVQLLESGGGLVQPGGSLRLSCAASGFTFSKYEMMWVRQAPGKGLEWVSSISPSGGYTMYADSVKGRFTISRDNSKNTLYLQMNSLRAEDTAVYYCARHRSKWNDAPFDSWGQGTLVTVSS
VL: DIQMTQSPSSLSASVGDRVAITCRASQSIDTYLNWYQQKPGKAPKLLIYAASKLEDGVPSRFSGSGTGTDFTLTIRSLQPEDFASYFCQQSYSSPGITFGPGTKVEIK
B3: 559B-M0044-C05 (Fab, V domains shown)
VH: EVQLLESGGGLVQPGGSLRLSCAASGFTFSIYQMYWVRQAPGKGLEWVSSIYSSGGRTFYADSVKGRFTISRDNSKNTLYLQMNSLRAEDTAVYYCATRGSWYVGGNEYFQHWGQGTLVTVSS
VL: QSVLTQSPSLSLSPGQTASIPCSGDTLGNKFVSWYQQKPGQSPVLVIYQDTKRPSGIPERFSGSNSGNTATLTITGTQAMDEADYYCQVWDSNSYAFGPGTKVTVL
B4: 559B-M0047-H01 (Fab, V domains shown)
VH: EVQLLESGGGLVQPGGSLRLSCAASGFTFSFYMMYWVRQAPGKGLEWVSSISSSGGFTRYADSVKGRFTISRDNSKNTLYLQMNSLRAEDTAVYYCARVRGLAVAAPDYWGQGTLVTVSS
VL: QSELTQPASVSGSPGQSITISCIGTSSDIGTYNYVSWYQQHPGKAPKLMIYDVNTRPSGVSDRFSGSKSGNTASLTISGLQAEDEADYYCSSYTTSVTWVFGGGTTLTVL
B5: 559B-M0067-E02 (Fab, V domains shown)
VH: EVQLLESGGGLVQPGGSLRLSCAASGFTFSLYPMVWVRQAPGKGLEWVSSIYPSGGFTTYADSVKGRFTISRDNSKNTLYLQMNSLRAEDTAVYYCARSSRYYYYGMDVWGQGTTVTVSS
VL: QYELTQPPSMSGTPGQRVTISCSGSSSNIGSEYVYWFQQLPGTAPKLLIYRNDQRPSGVPDRFSGSKSGTSASLAISGLRSEDETDYYCSTWDDTLRTGVFGGGTKVTVL
B6: 559B-M0003-C08 (Fab, V domains shown)
VH: EVQLLESGGGLVQPGGSLRLSCAASGFTFSPYMMYWVRQAPGKGLEWVSSISPSGGKTWYADSVKGRFTISRDNSKNTLYLQMNSLRAEDTAVYYCARLGGSSSYYYYYYYGMDVWGQGTTVTVSS
VL: QSALTQSPSASGTPGQRVTISCSGSSSNIGGNTVNWYQQFPGTAPKLLIYSNNQRPSGVPDRFSGSKSGTSASLAISGLQSEDEAIYYCASWDDRLNGHWVFGGGTRLTVL
B7: 559B-M0039-H06 (Fab, V domains shown)
VH: EVQLLESGGGLVQPGGSLRLSCAASGFTFSAYDMHWVRQAPGKGLEWVSSIWPSGGGTYYADSVKGRFTISRDNSKNTLYLQMNSLRAEDTAVYYCARGDYDYGDFTDAFDIWGQGTMVTVSS
VL: QSALTQPASVSGSPGQSITISCTGTSSDVGSYNLVSWYQQHPGKAPKLMIYEGSKRPSGVPDRFSGSKSGNTASLIISGLQAEDEADYYCCSYAGSYSYVFGTGTRVTVL
B8: 559B-M0019-E12 (Fab, V domains shown)
VH: EVQLLESGGGLVQPGGSLRLSCAASGFTFSGYNMYWVRQAPGKGLEWVSRISPSGGWTSYADSVKGRFTISRDNSKNTLYLQMNSLRAEDTAVYYCTRGQWMDWWGQGTMVTVSS
VL: DIQMTQSPSSLSASVGDRVIITCRASQNITGYLNWYQQKPGKAPNLLIYDASRMNTGVPSRFRGSGSGTDYILTIYKLEPEDIGTYFCQHTDDFSVTFGGGTKVDLK

biological target: T1, intact high molecular weight kininogen …; test: ELISA: Fab coated on 96-well plate, LowCross block, biotinylated antigen, streptavidin-HRP; signal over uncoated well
Experimental: Thirty-six purified Fab clones (see Table 2 below) were assessed for binding to cleaved HWMK, intact HMWK, and LWMK using the immunoassay described in Example 1. Specifically, each of the purified Fab clones was immobilized on 96-well assay plates at a concentration of […]) in a total volume of 100 μL in PBS and incubated overnight at 2-8° C. The assay plates were blocked using LowCross blocking buffer. Biotinylated intact HMWK, biotinylated cleaved HMWK or biotinylated LMWK ([…]) was added to each well in a total volume of 100 μL and incubated for 2 hours prior to washing with a wash buffer. HRP-labeled streptavidin was added to each well at a concentration of 100 ng/mL, and the signal was developed using Ultra TMB Substrate. The signal to noise ratio was calculated using the signal observed upon the addition of the biotinylated protein to an uncoated well. (FIG. 2, panels A and B). Based on the ELISA results, the antibodies can be divided among 5 categories (Table 2).

Binding result, binds:
B1
B2
B3
B4
B5
B6
B7
B8
